Source: patent publication US9096835B2, “DNA polymerase” (Medical Research Council, priority 2003, dated 2015)

B1: 3D1: third round clone, four mismatch extension; SEQ ID NO: 98 (protein)
chain: MAMLPLFEPKGRVLLVDGHHLAYRTFFALKGPTTSRGEPVQVVYGFAKSLLKALKEDGYKAVFVVFDAKAPSFRHKAYEAYRAGRAPTPEDFPRQLALIKELVDLLGFTRLEVPGYEADDVLATLAKKAEKEGYEVRILTADRGLYQLVSDRVAVLHPEGHLITPEWLWEKYGLRPEQWVDFRALVGDPSDNLPGVKGIGEKTALKLLKEWGSLENLLKNLDRVKPENVREKIKAHLEDLRLSLELSRVRTDLPLEVDLAQRREPDREGLRAFLERLEFGSLFHEFGLLESPKALEEAPWPPPEGAFVGFVLSRKEPMWADLLALAAARGGRVHRAPEPYKALRDLKEARGLLAKDLSVLALREGLGLPPGDDPMLLAYLLDPSNTTPEGVARRYGGEWTEEAGERAALSERLFANLWGRLEGEERLLWLYREVERPLSAVLAHMEATGVRLDVAYLRALSLEVAEEIARLEAEVFRLAGHPFNLNSRDQLEMVLFDELRLPALGKTQKTGKRSTSAAVLEALREAHPIVEKILQYRELTKLKSTYIDPLSDLIHPRTGRLHTRFNQTATATGRLSSSDPNLQNIPVRTPLGQRIRRAFIAEEGWLLVVLDYSQIELRVLAHLSGDENLIRVFQEGRDIHTETASWMFGVPREAVDPLMRRAAKTINFGVLYGMSAHRLSQELAIPYEEAQAFIERYFQSFPKVRAWIEKTLEEGRRRGYVETLFGRRRYVPDLEARVKSVREAAERMAFNMPVQGTAADLMKLAMVKLFPRLGETGARMLLQVHDELVLEAPKERAEAVARLAKEAMEGVYPLAVPLEVEVGIGEDWLSAKG
modifications: Mutant Taq polymerase
B2: 3A10: third round clone, abasic site bypass; SEQ ID NO: 86 (protein)
chain: MAMLPLFEPKGRVLLVDGHHLAYRTFFALKGLTTSRGEPVQVVYGFAKSLLKALKEDGYKAVFVVFDAKAPSFRHKAYEAYRAGRAPTPQDFPRQLALIKELVDLLGFTRLEVPGYEADDVLATLAKKAEKEGYEVRILTADRGLYQLVSDRVAVLHPEGHLITPEWLWEKYGLRPEQWVDFRALVGDPSDNLPGVKGIGEKTALKLLKEWGSLENLLKNLDRVKPENVREKIKAHLEDLRLSLELSRVRTDLPLEVDLAQGREPDREGLRAFLERLEFGSLLHEFGLLESPKALEEAPWPPPEGAFVGFVLSRKEPMWADLLALAAARGGRVHQAPEPYKALRDLKEARGLLAKDLSVLALREGLGLPPGDDPMLLAYLLDPSNTTPEGVARRYGGEWTEEAGERAALSERLFANLWGRLEGEERLLWLYREVERPLSAVLAHMETTGVRLDVAYLRALSLEVAEEIARLEAEVFRLAGRPFNLNSRDQLERVLFDELGLPAIGKTEKTGKRSTSAAVLEALREAHPIVEKILQYRELTKLKSTYIDPLPDLIHPRTGRLHTRFNQTATATGRLSSSDPNLQNIPVRTPLGQRIRRAFIAEEGWLLVVLDYSQMELRVLAHLSGDENLIRVFQEGKDIHTQTASWMFGVPPEAVDPLMRRAAKTVNFGVLYGMSAHRLSQELSIPYEEAVAFIERYFQSFPKVRAWIEKTLEEGRRRGYVETLFGRRRYVPDLNARMKSVRGAAERMAFNMPVQGTAADLMKLAMVKLFPRLREMGARMLLQVHDELLLEAPQARAEEVAALAKEAMEKAYPLAVPLEVEVGIGEDWLSAKE
modifications: Mutant Taq polymerase

Columns and labels:
four mismatch primers = experiment: PCR screen of clones with four mismatch primers; type: biochemical; details: 292 base pair product, 50 cycles of PCR
Method: The resultant clones from both CSR and CST were screened and ranked by PCR assay. Briefly, 2 μl of induced cells were added to 20 μl of PCR mix with the relevant 4 mismatch primers. Clones that produced a band were then subjected to further analysis and their activity on single, double and quadruple mismatch primers (single mismatch primers: 5′-CAGGAAACAGCTATGACAAAAATCTAGATAACGAGGGA-3′ (SEQ ID NO: 48) and 5′-GTAAAACGACGGCCAGTACCACCGAACTGCGGGTGACGCCAAGCC 3′ (SEQ ID NO: 49); double mismatch primers: CAGGAAACAGCTATGACTCGACAAAAATCTAGATAACGACC (SEQ ID NO: 50) and GTAAAACGACGGCCAGTTTATTAACCACCGAACTGC (SEQ ID NO: 51); four mismatch primers above.) was investigated. Polymerases that could extend all of these mismatches were found, though many polymerases could do only one of the mismatches and […].
The best first and second round clones were shuffled as described above and subjected to another round of CSR. The same two sets of mismatch primers with four mismatches at their 3′ end were used in the emulsion as two separate sources of selective pressure. This was then dealt with as above and the resultant clones were screened and ranked by PCR assay (as above). Once again, polymerases that could extend all of these mismatches were found. In particular, clones 3B5.

[1] = system: abasic sites and 5-hydroxy hydantoins; experiment: Hairpin ELISA lesion bypass screen; type: biochemical; details: ELISA based activity screen
From the text: The below protocol is a sensitive method to measure polymerase activity both for the incorporation of unnatural nucleotide substrates (added to the reaction mixture) or the extension or replication of unnatural nucleotide substrates (incorporated as part of the hairpin oligo).
The assay comprises a hairpin oligonucleotide which constitutes both primer and template in one. In contains as part of the hairpin a biotinylated dU residue, which allows capture of the hairpin oligonucleotide on streptavidin-coated surfaces.
The oligonucleotide folds up into a hairpin with a 5′ overhang, which serves as the template strand for the polymerase (typical sequence: 5′-AGCTACCATGCCTGCACGCAGTCGGCATCCGTCGCGACCACG TT5 TTCGTGGTCGCGACGGATGCCG-3′ (SEQ ID NO: 52), bases involved in hairpin formation are underlined, 3′ base is in bold, 5=dU-biotin).
Extension reactions are carried out in the presence of small amounts of a labelled nucleotide typically DIG-16-dUTP. Product is captured (for example on a streptavidin coated ELISA plate) and incorporation of labelled nucleotide into the product strand is measured (using for example an anti-DIG antibody) and taken as a measure of polymerase activity. […]

Molecule	extension of primers containing four mismatches in PCR (four mismatch primers)	extension of primers containing four mismatches in PCR (four mismatch primers; listed as D1)	proficiency at lesion bypass compared with wild type Taq [1]
B1	able to extend primers containing four mismatches	can also extend four mismatched primers in PCR	up to two orders of magnitude
B2	cannot	–	up to two orders of magnitude
